Reference: patent publication US20130122566A1, “NOVEL ENZYME PROTEIN, PROCESS FOR PRODUCTION OF THE ENZYME PROTEIN THE SAME, AND GENE ENCODING THE ENZYME PROTEIN THE SAME” (JAPAN TOBACCO INC., priority 2010, published 2013)
Positions count from the first letter of the chain named. Numbers in names are those of the source.

Experiments:
[1] = molecular target: T1, Photobacterium phosphoreum strain JT-ISH-467 β-galactoside-α2,3-sialyltransferase N2C0 variant F318AE319A (ISH467-N2C0-F318AE319A); Phe318 and Glu319 of SEQ ID N (Photobacterium phosphoreum, UniProt A5LHX0, E342A/F341A); assay: Sialyltransferase kinetics for lactose and CMP-sialic acid, F318A E319A variant enzyme; format: biochemical; details: not containing His×6-Tag
T1 sequence (A5LHX0 with tags, fused parts or gaps F341A/E342A): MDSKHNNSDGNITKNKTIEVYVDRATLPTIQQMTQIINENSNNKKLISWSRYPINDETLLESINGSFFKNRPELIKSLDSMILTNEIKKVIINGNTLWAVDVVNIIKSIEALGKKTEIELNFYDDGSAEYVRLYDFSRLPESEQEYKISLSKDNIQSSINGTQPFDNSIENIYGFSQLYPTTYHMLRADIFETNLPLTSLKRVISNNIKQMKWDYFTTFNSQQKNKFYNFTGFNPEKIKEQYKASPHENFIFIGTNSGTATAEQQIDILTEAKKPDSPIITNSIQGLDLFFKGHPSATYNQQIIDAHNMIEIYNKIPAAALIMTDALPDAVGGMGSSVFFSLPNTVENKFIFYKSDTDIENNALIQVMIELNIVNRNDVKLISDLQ
Method: The β-galactoside-α2,3-sialyltransferase activities of variant-type N2C0 proteins (four variants: F318A, E319A, F318AE319A, and S337A) each containing His×6-Tag purified in Example 1 (2) were measured. The sialyltransferase activity was measured by the method as described in J. Biochem., 120, 104-110, (1996) (hereby incorporated by reference in its entirety). […] The enzyme reaction was performed at 30° C. for 5 minutes. After the completion of the reaction, 1.97 mL of 5 mM phosphate buffer (pH 6.8) was added to the reaction solution, which was then applied to a Dowex 1×8 (PO4^3− form, 0.2×2 cm, manufactured by Bio-Rad Laboratories, Inc.) column. The reaction product contained in the eluate (0 to 2 mL) from this column, i.e., the radioactivity contained in sialyllactose was measured to calculate the enzyme activity. One enzyme unit (1 U) is defined as the amount of the enzyme required to release one micromole of sialic acid per minute.

[2] = molecular target: T2, Photobacterium phosphoreum strain JT-ISH-467 β-galactoside-α2,3-sialyltransferase N2C0 (ISH467-N2C0), wild type, SEQ ID NO: 2, not containing His×6-Tag (Photobacterium phosphoreum, UniProt A5LHX0); assay: Sialyltransferase kinetics for lactose and CMP-sialic acid, wild-type N2C0 enzyme; format: biochemical
T2 sequence (A5LHX0 with tags, fused parts or gaps): T1 sequence (A5LHX0 with tags, fused parts or gaps F341A/E342A) with A318F, A319E

[3] = substrate: OC[C@H]1O[C@@H](O[C@H]2[C@H](O)[C@@H](O)C(O)O[C@@H]2CO)[C@H](O)[C@@H](O)[C@H]1O; assay: purified protein, by the assay type; details: not containing His×6-Tag, 30.0 °C
[4] = substrate: CC(=O)N[C@H]1[C@H]([C@H](O)[C@H](O)CO)O[C@](OP(=O)(O)OC[C@H]2O[C@@H](n3ccc(N)nc3=O)[C@H](O)[C@@H]2O)(C(=O)O)C[C@@H]1O; assay: purified protein, by the assay type; details: not containing His×6-Tag, 30.0 °C
[5] = substrate: OC[C@H]1O[C@@H](O[C@H]2[C@H](O)[C@@H](O)C(O)O[C@@H]2CO)[C@H](O)[C@@H](O)[C@H]1O; assay: purified protein, by the assay type; format: biochemical, Photobacterium phosphoreum strain JT-ISH-467; details: other: E319A variant enzyme, not containing His×6-Tag; 30.0 °C
Method: (§1) The sialyltransferase activity was measured by the method as described in J. Biochem., 120, 104-110, (1996) (hereby incorporated by reference in its entirety). […] The enzyme reaction was performed at 30° C. for 5 minutes. After the completion of the reaction, 1.97 mL of 5 mM phosphate buffer (pH 6.8) was added to the reaction solution, which was then applied to a Dowex 1×8 (PO4^3− form, 0.2×2 cm, manufactured by Bio-Rad Laboratories, Inc.) column. […] One enzyme unit (1 U) is defined as the amount of the enzyme required to release one micromole of sialic acid per minute.

[6] = substrate: CC(=O)N[C@H]1[C@H]([C@H](O)[C@H](O)CO)O[C@](OP(=O)(O)OC[C@H]2O[C@@H](n3ccc(N)nc3=O)[C@H](O)[C@@H]2O)(C(=O)O)C[C@@H]1O; assay: purified protein, by the assay type; format: biochemical, Photobacterium phosphoreum strain JT-ISH-467; details: other: E319A variant enzyme, not containing His×6-Tag; 30.0 °C
Method: as §1

[7] = other: wild-type N2C0 enzyme, pH 6.8
[8] = other: F318A E319A variant enzyme

`OC[C@H]1O[C@@H](O[C@H]2[C@H](O)[C@@H](O)C(O)O[C@@H]2CO)[C@H](O)[C@@H](O)[C@H]1O` (stereo partly drawn) [Lactose, lactose] was tested, and the Vmax [1] was 7.2 nmol/min, the kcat [1] was 10.8 s⁻¹ and the Vmax [2] was 3.9 nmol/min. The kcat [2] was 11.2 s⁻¹.

Work on `CC(=O)N[C@H]1[C@H]([C@H](O)[C@H](O)CO)O[C@](OP(=O)(O)OC[C@H]2O[C@@H](n3ccc(N)nc3=O)[C@H](O)[C@@H]2O)(C(=O)O)C[C@@H]1O` [CMP-sialic acid, cytidine monophosphate (CMP)-sialic acid] yielded a Vmax [1] of 8.9 nmol/min, a kcat [1] of 13.3 s⁻¹ and a Vmax [2] of 7.3 nmol/min. The kcat [2] was 21.0 s⁻¹.

B1: Photobacterium phosphoreum strain JT-ISH-467 β-galactoside-α2,3-sialyltransferase N2C0 (ISH467-N2C0), wild type, SEQ ID NO: 2, not containing His×6-Tag … (protein)
chain: T1 sequence (A5LHX0 with tags, fused parts or gaps F341A/E342A) with A318F, A319E
Work on B1 yielded a Km [3, 7] of 8.4 mM and a Km [4, 7] of 0.72 mM.

B2: Photobacterium phosphoreum strain JT-ISH-467 β-galactoside-α2,3-sialyltransferase N2C0 variant E319A (ISH467-N2C0-E319A; Glu319 of SEQ ID NO: 2 replaced with … (protein)
chain: T1 sequence (A5LHX0 with tags, fused parts or gaps F341A/E342A) with A318F
Molecule B2 has a Km [5] of 22 mM, a Vmax [5] of 0.012 µmol/min and a kcat [5] of 99.7 s⁻¹. The Km [6] was 0.53 mM, the Vmax [6] was 3.2 nmol/min and the kcat [6] was 106.3 s⁻¹.

B3: Photobacterium phosphoreum strain JT-ISH-467 β-galactoside-α2,3-sialyltransferase N2C0 variant F318AE319A (ISH467-N2C0-F318AE319A; Phe318 and Glu319 of SEQ ID … (protein)
chain: T1 sequence (A5LHX0 with tags, fused parts or gaps F341A/E342A)
In the case of B3, the Km [3, 8] is reported as 85 mM and the Km [4, 8] is reported as 1.59 mM.
